This note sets out measurements from US20220193191A1.

The target in this test is human interleukin-4 receptor alpha chain (IL-4Rα) (human) (UniProt P24394). Briefly: cell-based or functional assay.

B1: Reference IL-4Rα antibody (Dupilumab) (antibody, INN chains, looked up, V domains shown)
VH: EVQLVESGGGLEQPGGSLRLSCAGSGFTFRDYAMTWVRQAPGKGLEWVSSISGSGGNTYYADSVKGRFTISRDNSKNTLYLQMNSLRAEDTAVYYCAKDRLSITIRPRYYGLDVWGQGTTVTVSS
VL: DIVMTQSPLSLPVTPGEPASISCRSSQSLLYSIGYNYLDWYLQKSGQSPQLLIYLGSNRASGVPDRFSGSGSGTDFTLKISRVEAEDVGFYYCMQALQTPYTFGQGTKLEIKR
B1 registered an Eotaxin-3 IC50 (nM): inhibition of IL-4 induced eotaxin-3 release, human whole blood in vitro, 8 ng/mL IL-4 for 24 hours, ELISA of 1.5 nM; an MDC IC50 (nM): inhibition of IL-4 induced MDC release, human whole blood in vitro, 8 ng/mL IL-4 for 24 hours, ELISA of 1.1 nM; a TARC IC50 (nM): inhibition of IL-4 induced TARC release, human whole blood in vitro, 8 ng/mL IL-4 for 24 hours, ELISA of 0.8 nM; a pSTAT IC50 (nM): inhibition of IL-4 stimulated STAT6 phosphorylation in CD3+ T cells, human whole blood in vitro, 8 ng/mL IL-4 for 15 minutes, FACS of 0.8 nM.
